{"source": "patent US20260234255A1", "about": "(Genmab, published 2026)", "binders": {"B1": {"name": "IgG1-CD30-T408-FEAR (antibody, V domains shown)", "VH": "QVQLQQPGAELVRPGASVKLSCKASGYTFTSYWINWVKQRPGQGLEWIGNIYPSDSYSNYNQKFKDKATLTVDKSSSTAYMQLSSPTSEDSAVYYCTLGSYWGQGTLVTVSA", "VL": "not shown", "notes": "Monospecific, bivalent parental antibody"}, "B2": {"name": "bsG1-huCD3-FEALxb12-FERR (bispecific antibody, human IgG1, kappa, lambda)", "heavy 1": "not shown", "light 1": "not shown", "heavy 2": "QVQLVQSGAEVKKPGASVKVSCQASGYRFSNFVIHWVRQAPGQRFEWMGWINPYNGNKEFSAKFQDRVTFTADTSANTAYMELRSLRSADTAVYYCARVGPYSWDDSPQDNYYMDVWGKGTTVIVSSASTKGPSVFPLAPSSKSTSGGTAALGCLVKDYFPEPVTVSWNSGALTSGVHTFPAVLQSSGLYSLSSVVTVPSSSLGTQTYICNVNHKPSNTKVDKRVEPKSCDKTHTCPPCPAPEFERGPSVFLFPPKPKDTLMISRTPEVTCVVVDVSHEDPEVKFNWYVDGVEVHNAKTKPREEQYNSTYRVVSVLTVLHQDWLNGKEYKCKVSNKALPAPIEKTISKAKGQPREPQVYTLPPSREEMTKNQVSLTCLVKGFYPSDIAVEWESNGQPENNYKTTPPVLDSDGSFFLYSRLTVDKSRWQQGNVFSCSVMHEALHNHYTQKSLSLSPG", "light 2": "EIVLTQSPGTLSLSPGERATFSCRSSHSIRSRRVAWYQHKPGQAPRLVIHGVSNRASGISDRFSGSGSGTDFTLTITRVEPEDFALYYCQVYGASSYTFGQGTKLERKRTVAAPSVFIFPPSDEQLKSGTASVVCLLNNFYPREAKVQWKVDNALQSGNSQESVTEQDSKDSTYSLSSTLTLSKADYEKHKVYACEVTHQGLSSPVTKSFNRGEC", "notes": "Monovalent CD3 control antibody"}, "B3": {"name": "IgG1-CD30-MDX060-FERR (antibody)", "heavy": "QVQLQQWGAGLLKPSETLSLTCAVYGGSFSAYYWSWIRQPPGKGLEWIGDINHGGGTNYNPSLKSRVTISVDTSKNQFSLKLNSVTAADTAVYYCASLTAYWGQGSLVTVSSASTKGPSVFPLAPSSKSTSGGTAALGCLVKDYFPEPVTVSWNSGALTSGVHTFPAVLQSSGLYSLSSVVTVPSSSLGTQTYICNVNHKPSNTKVDKRVEPKSCDKTHTCPPCPAPEFERGPSVFLFPPKPKDTLMISRTPEVTCVVVDVSHEDPEVKFNWYVDGVEVHNAKTKPREEQYNSTYRVVSVLTVLHQDWLNGKEYKCKVSNKALPAPIEKTISKAKGQPREPQVYTLPPSREEMTKNQVSLTCLVKGFYPSDIAVEWESNGQPENNYKTTPPVLDSDGSFFLYSRLTVDKSRWQQGNVFSCSVMHEALHNHYTQKSLSLSPG", "light": "DIQMTQSPTSLSASVGDRVTITCRASQGISSWLTWYQQKPEKAPKSLIYAASSLQSGVPSRFSGSGSGTDFTLTISSLQPEDFATYYCQQYDSYPITFGQGTRLEIKRTVAAPSVFIFPPSDEQLKSGTASVVCLLNNFYPREAKVQWKVDNALQSGNSQESVTEQDSKDSTYSLSSTLTLSKADYEKHKVYACEVTHQGLSSPVTKSFNRGEC", "notes": "Monospecific, bivalent parental antibody; also called IgG1-huCD30-MDX060-FERR"}}, "key": {"human CD30 [1]": {"target": "T1, human CD30 (human, UniProt P28908 19-595)", "T1 construct": "also called huCD30; TNFRSF8", "T1 sequence": "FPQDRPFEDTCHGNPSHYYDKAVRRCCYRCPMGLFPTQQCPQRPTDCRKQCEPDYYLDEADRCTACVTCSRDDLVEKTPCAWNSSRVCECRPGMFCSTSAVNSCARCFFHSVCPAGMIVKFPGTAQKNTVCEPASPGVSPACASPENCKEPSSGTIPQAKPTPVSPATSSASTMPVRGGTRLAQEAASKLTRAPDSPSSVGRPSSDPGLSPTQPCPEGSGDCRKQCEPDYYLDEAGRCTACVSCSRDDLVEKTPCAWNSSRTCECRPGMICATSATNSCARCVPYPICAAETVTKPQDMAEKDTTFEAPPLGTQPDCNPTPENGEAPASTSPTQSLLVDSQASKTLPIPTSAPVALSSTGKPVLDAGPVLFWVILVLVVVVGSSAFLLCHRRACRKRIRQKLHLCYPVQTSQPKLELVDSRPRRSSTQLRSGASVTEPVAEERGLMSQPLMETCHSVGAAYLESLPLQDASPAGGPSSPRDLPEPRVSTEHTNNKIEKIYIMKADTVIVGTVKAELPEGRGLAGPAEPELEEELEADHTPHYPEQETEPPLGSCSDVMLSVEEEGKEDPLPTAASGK", "assay": "flow cytometry, HDLM-2 cells", "procedure": "(§1) Binding of CD3×CD30 bispecific antibodies to two CD30-expressing human tumor cell lines SU-DHL-1 (ALCL; ATCC, cat. no. ACC 356) and HDLM-2 (HL; ATCC, cat. no. CRL-2965) was analyzed […] by flow cytometry.\n(§2) Cells (3×10⁴ cells/well) were incubated in polystyrene 96-well round-bottom plates (Greiner bio-one, cat. no. 650180) with serial dilutions of antibodies (range 0.0046 to 10 μg/mL in 3-fold dilution steps) in 50 μL staining buffer at 4° C. for 30 min. After washing twice in staining buffer, cells were incubated with 50 μL secondary antibody at 4° C. for 30 min. […] Next, cells were washed twice in staining buffer, resuspended in 100 μL staining buffer supplemented with TO-PRO-3 iodide (Thermo Fisher Scientific; cat. no. T3605; 1:8000 dilution) and analyzed on a FACSCelesta flow cytometer (BD Biosciences, USA). Live cells were gated based on FSC/SSC and absence of TOPRO-3 staining. Binding curves were analyzed by non-linear regression of log-transformed data (sigmoidal dose-response with variable slope, four parameters) using GraphPad Prism V7.02 software (GraphPad Software, San Diego, CA, USA)."}, "[2]": {"target": "T2, rhesus monkey (Macaca mulatta) CD30 (rhesus monkey, UniProt P28908 19-595 (human entry))", "T2 construct": "also called mmCD30", "T2 chain": "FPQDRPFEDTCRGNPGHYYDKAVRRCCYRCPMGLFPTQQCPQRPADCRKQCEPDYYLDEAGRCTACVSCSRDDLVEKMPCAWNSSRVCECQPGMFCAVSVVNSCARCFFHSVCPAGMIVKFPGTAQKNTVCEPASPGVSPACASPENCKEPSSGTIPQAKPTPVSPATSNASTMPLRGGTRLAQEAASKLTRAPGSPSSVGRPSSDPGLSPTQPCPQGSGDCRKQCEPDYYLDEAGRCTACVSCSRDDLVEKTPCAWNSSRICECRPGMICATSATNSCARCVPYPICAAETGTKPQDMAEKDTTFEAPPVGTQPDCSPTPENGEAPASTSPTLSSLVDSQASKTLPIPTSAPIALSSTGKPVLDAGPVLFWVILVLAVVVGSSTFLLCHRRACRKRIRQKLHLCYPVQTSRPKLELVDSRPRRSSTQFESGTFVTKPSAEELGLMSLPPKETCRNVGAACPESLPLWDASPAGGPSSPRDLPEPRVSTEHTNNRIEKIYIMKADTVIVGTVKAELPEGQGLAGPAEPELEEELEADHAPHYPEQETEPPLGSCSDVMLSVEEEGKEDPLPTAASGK", "assay": "flow cytometry, Expi293F cells transfected with rhesus monkey CD30"}, "human CD30 [3]": {"target": "T1, human CD30", "assay": "flow cytometry, Expi293F cells transfected with human CD30", "procedure": "Cells (3×10⁴ cells/well) were incubated in polystyrene 96-well round-bottom plates (Greiner bio-one, cat. no. 650180) with serial dilutions of antibodies (ranging from 0.005 to 10 μg/mL in 3-fold dilution steps) in 100 μL staining buffer at 4° C. for 30 min. Experiments were performed in technical duplicate. After washing twice in staining buffer, cells were incubated in 50 μL secondary antibody at 4° C. for 30 min. As a secondary antibody, R-PE-conjugated goat-anti-human IgG (Jackson ImmunoResearch, UK; cat. no. 109⁻¹¹⁶-098) diluted 1:400 in staining buffer was used. Cells were washed twice in staining buffer, resuspended in 30 μL staining buffer containing 0.4% EDTA and analyzed on an iQue Screener (Intellicyt Corporation, USA). Binding curves were analyzed using non-linear regression (sigmoidal dose-response with variable slope) using GraphPad Prism V9.0.0 software (GraphPad Software, San Diego, CA, USA)."}, "human CD30 [4]": {"target": "T1, human CD30", "assay": "flow cytometry, SU-DHL-1 cells", "procedure": "as §1, §2"}, "[5]": {"target": "T3, cynomolgus monkey (Macaca fascicularis) CD30 (cynomolgus monkey, UniProt P28908 19-595 (human entry))", "T3 construct": "also called mfCD30", "T3 chain": "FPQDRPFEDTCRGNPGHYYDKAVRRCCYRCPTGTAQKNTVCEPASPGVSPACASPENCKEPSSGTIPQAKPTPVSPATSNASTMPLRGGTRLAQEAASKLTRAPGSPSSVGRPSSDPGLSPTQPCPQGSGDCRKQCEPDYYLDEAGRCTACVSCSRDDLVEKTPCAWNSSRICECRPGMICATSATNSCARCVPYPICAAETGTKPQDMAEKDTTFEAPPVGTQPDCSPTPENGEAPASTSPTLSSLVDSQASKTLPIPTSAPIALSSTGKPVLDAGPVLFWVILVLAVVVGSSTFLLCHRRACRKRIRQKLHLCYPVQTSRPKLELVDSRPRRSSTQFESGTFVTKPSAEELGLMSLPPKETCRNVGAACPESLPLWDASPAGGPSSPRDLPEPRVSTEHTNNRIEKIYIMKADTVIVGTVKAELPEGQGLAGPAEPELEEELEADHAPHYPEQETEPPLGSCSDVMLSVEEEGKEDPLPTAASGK", "assay": "flow cytometry, HEK293 cells transfected with mfCD30", "procedure": "Cells (3×10⁴ cells/well) were incubated in polystyrene 96-well round-bottom plates (Thermo Scientific, cat. no. 163320) with serial dilutions of antibodies (ranging from 0.0002 to 50 μg/mL in 4-fold dilution steps) in 50 μL staining buffer at 4° C. for 30 min. Experiments were performed in technical duplicate. After washing twice in staining buffer, cells were incubated in 50 μL secondary antibody at 4° C. for 30 min. As a secondary antibody, R-PE-conjugated goat-anti-human IgG (Jackson ImmunoResearch, UK; cat. no. 109⁻¹¹⁶-098) diluted 1:200 in staining buffer was used. Cells were washed twice in staining buffer, resuspended in 30 μL staining buffer containing 0.4% EDTA and the ToPro-3 viability marker (Invitrogen, cat. no. T3605) diluted 1:10,000. Cells were analyzed on an iQue Screener (Intellicyt Corporation, USA). Binding curves were analyzed using non-linear regression (sigmoidal dose-response with variable slope) using GraphPad Prism V9.0.0 software (GraphPad Software, San Diego, CA, USA)."}, "human CD30 [6]": {"target": "T1, human CD30", "assay": "flow cytometry, L-540 cells"}, "human CD30 [7]": {"target": "T1, human CD30", "assay": "flow cytometry, KM-H2 cells"}, "human CD30 [8]": {"target": "T1, human CD30", "assay": "flow cytometry, NCEB-1 cells"}, "human CD30 [9]": {"target": "T1, human CD30", "assay": "flow cytometry, SR-786 cells"}, "human CD30 [10]": {"target": "T1, human CD30", "assay": "flow cytometry, DEL cells"}, "human CD30 [11]": {"target": "T1, human CD30", "assay": "flow cytometry, HH cells", "procedure": "as §2"}, "human CD30 [12]": {"target": "T1, human CD30", "assay": "flow cytometry, DL-40 cells"}, "human CD30 [13]": {"target": "T1, human CD30", "assay": "flow cytometry, L-82 cells"}, "human CD30 [14]": {"target": "T1, human CD30", "assay": "flow cytometry, SUP-M2 cells"}, "human CD30 [15]": {"target": "T1, human CD30", "assay": "flow cytometry, HDLM-2 cells"}, "human CD30 [16]": {"target": "T1, human CD30", "assay": "flow cytometry, L-1236 cells"}, "human CD30 [17]": {"target": "T1, human CD30", "assay": "flow cytometry, KI-JK cells"}}, "data": [{"binder": "B1", "values": [{"measurement": "EC50 (read off the curve)", "setting": "human CD30 [1]", "result": "~1", "unit": "µg/mL"}, {"measurement": "EC50 (read off the curve)", "setting": "[2]", "result": "~0.4", "unit": "µg/mL"}, {"measurement": "EC50 (read off the curve)", "setting": "human CD30 [3]", "result": "~0.2", "unit": "µg/mL"}, {"measurement": "EC50 (read off the curve)", "setting": "human CD30 [4]", "result": "~0.6", "unit": "µg/mL"}]}, {"binder": "B2", "values": [{"measurement": "binding result", "setting": "[5]", "result": "no binding (tested: 0.0002 to 50 µg/mL)"}]}, {"binder": "B3", "values": [{"measurement": "EC50 (read off the curve)", "setting": "human CD30 [6]", "result": "~0.3", "unit": "µg/mL"}, {"measurement": "EC50 (read off the curve)", "setting": "human CD30 [7]", "result": "~0.04", "unit": "µg/mL"}, {"measurement": "EC50 (read off the curve)", "setting": "human CD30 [8]", "result": "~0.04", "unit": "µg/mL"}, {"measurement": "EC50 (read off the curve)", "setting": "human CD30 [9]", "result": "~0.1", "unit": "µg/mL"}, {"measurement": "EC50 (read off the curve)", "setting": "human CD30 [10]", "result": "~0.1", "unit": "µg/mL"}, {"measurement": "EC50 (read off the curve)", "setting": "human CD30 [11]", "result": "~0.1", "unit": "µg/mL"}, {"measurement": "EC50 (read off the curve)", "setting": "human CD30 [12]", "result": "~0.07", "unit": "µg/mL"}, {"measurement": "EC50 (read off the curve)", "setting": "human CD30 [13]", "result": "~0.07", "unit": "µg/mL"}, {"measurement": "EC50 (read off the curve)", "setting": "human CD30 [14]", "result": "~0.03", "unit": "µg/mL"}, {"measurement": "EC50 (read off the curve)", "setting": "human CD30 [15]", "result": "~0.06", "unit": "µg/mL"}, {"measurement": "EC50 (read off the curve)", "setting": "human CD30 [16]", "result": "~0.04", "unit": "µg/mL"}, {"measurement": "EC50 (read off the curve)", "setting": "human CD30 [17]", "result": "~0.06", "unit": "µg/mL"}]}]}
